B1: 2A1-HC-Cys387ins: 2A1 antibody with cysteine inserted at heavy chain position 387 (SEQ ID NO: 42) (antibody)
heavy: DVQLQESGPSLVKPSQSLSLTCTVTGYSITSDFAWNWIRQFPGNKLEWMGYISYSGNTRYNPSLKSRISITRDTSKNQFFLQLNSVTIEDTATYYCVTAGRGFPYWGQGTLVTVSAASTKGPSVFPLAPSSKSTSGGTAALGCLVKDYFPEPVTVSWNSGALTSGVHTFPAVLQSSGLYSLSSVVTVPSSSLGTQTYICNVNHKPSNTKVDKRVEPKSCDKTHTCPPCPAPEFLGGPSVFLFPPKPKDTLMISRTPEVTCVVVDVSHEDPEVKFNWYVDGVEVHNAKTKPREEQYNSTYRVVSVLTVLHQDWLNGKEYKCKVSNKALPAPIEKTISKAKGQPREPQVYTLPPSRDELTKNQVSLTCLVKGFYPSDIAVEWESNGQPENNCYKTTPPVLDSDGSFFLYSKLTVDKSRWQQGNVFSCSVMHEALHNHYTQKSLSLSPG
light: DILMTQSPSSMSVSLGDTVSITCHSSQDINSNIGWLQQRPGKSFKGLIYHGTNLDDEVPSRFSGSGSGADYSLTISSLESEDFADYYCVQYAQFPWTFGGGTKLEIKRTVAAPSVFIFPPSDEQLKSGTASVVCLLNNFYPREAKVQWKVDNALQSGNSQESVTEQDSKDSTYSLSSTLTLSKADYEKHKVYACEVTHQGLSSPVTKSFNRGEC
B2: 2A1-HC-Cys410ins: 2A1 antibody with cysteine inserted at heavy chain position 410 (SEQ ID NO: 44) (antibody)
heavy: DVQLQESGPSLVKPSQSLSLTCTVTGYSITSDFAWNWIRQFPGNKLEWMGYISYSGNTRYNPSLKSRISITRDTSKNQFFLQLNSVTIEDTATYYCVTAGRGFPYWGQGTLVTVSAASTKGPSVFPLAPSSKSTSGGTAALGCLVKDYFPEPVTVSWNSGALTSGVHTFPAVLQSSGLYSLSSVVTVPSSSLGTQTYICNVNHKPSNTKVDKRVEPKSCDKTHTCPPCPAPEFLGGPSVFLFPPKPKDTLMISRTPEVTCVVVDVSHEDPEVKFNWYVDGVEVHNAKTKPREEQYNSTYRVVSVLTVLHQDWLNGKEYKCKVSNKALPAPIEKTISKAKGQPREPQVYTLPPSRDELTKNQVSLTCLVKGFYPSDIAVEWESNGQPENNYKTTPPVLDSDGSFFLYSKLTVDCKSRWQQGNVFSCSVMHEALHNHYTQKSLSLSPG
light: B1 light

What was measured:
[1] = tested on: EGFRwt-overexpressing human skin squamous cell carcinoma cell line A431; assay: MTS cytotoxicity (cell viability) assay, A431; type: cell-based; conditions: antibodies; 72 hours
Method: (§1) TDC cytotoxic activity was determined via the following experimental procedure: TDC was added to EGFR-overexpressing or […]-expressing human tumor cell culture medium, and cell viability was determined after 72 hours of cell culture. Cell-based in vitro experiments were used to determine cell viability, cytotoxicity and programmed cell death induced by TDC constituted by the present invention.
(§2) In vitro efficacy of antibody-toxin conjugates was determined via a cell proliferation assay. A CellTiter ^96® AqueousOne Solution Cell was Proliferation Assay purchased commercially from Promega Corp. (Madison, WI). CellTiter ^96® Aqueous One Solution Cell Proliferation Assay (a) is a colorimetric method used to detect the number of living cells in cell proliferation and cytotoxicity experiments. The above reagent contains the novel tetrazole compound [3-(4,5-dimethylthiazol-2-yl)-5-(3-carboxymethoxyphenyl)-2-(4-sulfophenyl)-2H-tetrazolium, inner salt; MTS) as well as an electronic coupling agent (phenazine ethosulfate; PES). […] This convenient “single solution” model is an improvement on the first generation of the CellTiter ^96® Aqueous Assay, in which the electronic coupling agent PMS was supplied separately from the MTS solution. MTS (Owen's reagent) is reduced by cellular organisms into a colored formazan product, which can be directly dissolved in culture medium (FIG. 1). This conversion is likely facilitated by NADPH NADH produced by dehydrogenase present in metabolically active cells. For the assay, a small amount of CellTiter ^96® Aqueous One Solution Reagent is added directly to the medium present in the wells of the culture plate, after which incubation is performed for 1 to 4 hours, followed by reading of the absorbance value at 490 nm using a microplate reader.
(§3) The amount of formazan product detected at 490 nm is proportional to the number of viable cells in culture. Because the formazan product of MTS is soluble in tissue culture medium, CellTiter ^96® Aqueous One Solution Assay requires fewer steps than the MTT or INT methods. A431 (EGFR-overexpressing cells) and U87-[…] (an […] mutant stable cell line) were used in the present invention as an investigative system for performing in vitro efficacy assays. In 96-well plates, cells were plated at 6000 cells/well and 24 hours later, antibody spiking was carried out. […] Cell viability was assayed via MTS 72 hours after treatment.

[2] = tested on: EFGRvIII-overexpressing human glioma cell line U87-EGFRvIII; assay: MTS cytotoxicity (cell viability) assay, U87-EGFRvIII; type: cell-based; conditions: antibodies; 72 hours; read-out: IC50, U87MG-EGFRvIII (MTS)
Method: as §1, §2, §3

[3] = target: T1, Recombinant EGFRVIII-His*6 antigen (Homo sapiens, UniProt P00533, DELINS30-297G); assay: ELISA relative affinity for EGFRvIII; type: binding; conditions: EGFRvIII-coated plates, A450, read-out: EC50 (nM), mutant antibody affinity
T1 construct: His*6
From the text: Insertion Mutation Modification and Parent Antibody 2A1 for EGFRvIII • ELISA was used to compare the relative affinities of 2A1-LC-Cys110ins-mc-vc-PAB-MMAE TDC, 2A1-LC-Cys111ins-mc-vc-PAB-MMAE TDC, 2A1-LC-Cys142ins-mc-vc-PAB-MMAE TDC, 2A1-HC-Cys254ins-mc-vc-PAB-MMAE TDC, 2A1-HC-Cys255ins-mc-vc-PAB-MMAE TDC, 2A1-HC-Cys258ins-mc-vc-PAB-MMAE TDC, 2A1-HC-Cys259ins-mc-vc-PAB-MMAE TDC, 2A1-HC-Cys354ins-mc-vc-PAB-MMAE TDC, 2A1-HC-Cys355ins-mc-vc-PAB-MMAE TDC, 2A1-HC-Cys357ins-mc-vc-PAB-MMAE TDC, 2A1-HC-Cys378ins-mc-vc-PAB-MMAE TDC, 2A1-HC-Cys379ins-mc-vc-PAB-MMAE TDC, 2A1-HC-Cys386ins-mc-vc-PAB-MMAE TDC, 2A1-HC-Cys387ins-mc-vc-PAB-MMAE TDC, 2A1-HC-Cys410ins-mc-vc-PAB-MMAE TDC, and 2A1 for EGFRvIII. The specific process used was as follows:
Recombinant […]-His*6 antigen was used to coat plates; fish skin gelatin was used as a seal; dilution of each insertion mutant antibody was performed separately, up to a maximum concentration 10 μg/ml and a 4-fold gradient dilution was performed for a total of 11 concentrations; HRP-labeled secondary antibodies were used for incubation; TMB was used for development and absorption detection was performed at 450 nm.

Molecule | IC50 [1] [µM] | IC50 [2] [µM] | EC50 [3] [nM]
B1 | > 10 | > 10 | 0.0452
B2 | > 10 | > 10 | 0.042
